Measured values reported in patent US20080139466A1.

Biological target: human TSH receptor on stably transfected CHO cells (JP09 cells) (human) (UniProt P16473)
Test: cell-based or functional assay

UniProt P16473, sequence (P16473 21-764): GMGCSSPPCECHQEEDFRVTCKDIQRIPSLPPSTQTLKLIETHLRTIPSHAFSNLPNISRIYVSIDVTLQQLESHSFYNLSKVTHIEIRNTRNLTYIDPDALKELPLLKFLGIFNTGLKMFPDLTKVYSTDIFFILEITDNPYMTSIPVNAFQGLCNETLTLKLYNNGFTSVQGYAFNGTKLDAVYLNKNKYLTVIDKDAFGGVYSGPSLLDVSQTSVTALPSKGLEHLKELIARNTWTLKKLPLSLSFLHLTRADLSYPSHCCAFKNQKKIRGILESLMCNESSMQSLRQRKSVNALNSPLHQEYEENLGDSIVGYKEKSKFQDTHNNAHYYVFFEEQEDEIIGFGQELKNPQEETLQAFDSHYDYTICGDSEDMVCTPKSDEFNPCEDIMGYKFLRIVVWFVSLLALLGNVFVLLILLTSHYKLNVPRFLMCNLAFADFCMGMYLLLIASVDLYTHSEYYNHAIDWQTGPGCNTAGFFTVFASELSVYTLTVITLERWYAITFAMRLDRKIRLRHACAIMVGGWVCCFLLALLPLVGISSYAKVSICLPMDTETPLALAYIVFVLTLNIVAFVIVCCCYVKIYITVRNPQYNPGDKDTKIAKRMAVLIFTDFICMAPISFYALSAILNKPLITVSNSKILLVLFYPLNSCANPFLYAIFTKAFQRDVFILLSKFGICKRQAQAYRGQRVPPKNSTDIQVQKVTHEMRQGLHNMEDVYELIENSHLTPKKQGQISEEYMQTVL

cAMP production (cAMP released into medium, RIA) by JP09 cells | Substance
25 pmol/mL | feline thyrotropin (fTSH) α/β heterodimer (from UniProt Q52R91 25-120; Q52R90 21-132) (ligand)
70 pmol/mL | feline thyrotropin yoked polypeptide (β-subunit-CTP-α-subunit) (ligand)
